Measured values reported in patent publication US20210395381A1 (OSSIANIX, published 2021).

Biological target: T1, recombinant mouse TfR-1 (mouse, UniProt Q62351 89-763)
T1 construct: Bought recombinant protein; also called mTfR1
Assay: phage ELISA
Procedure: After the third round of selection, instead of pooling bacterial colonies, individual phagemid clones were grown in 1 ml of 2TY medium containing glucose and ampicillin in 96-well blocks and used to rescue the phages. After an overnight culturing, bacteria were spun down and an aliquot of the phage supernatant was sent for Sanger sequencing (Genewiz); VNAR CDR3 sequences were identified using BioEdit (a sequence alignment editor). Another aliquot was blocked with 2.5% milk for phage ELISAs. High-binding ELISA plates (Greiner) were coated with 1 μg/ml of recombinant human or mouse TfR-1. The plates were then blocked with 2.5% milk in PBST. Blocked phages were added to the blocked plates and the VNAR-phage clones binding to the antigens were detected with HRP-labelled anti-M13 coat protein antibodies (Sino Biological), and chromogenic TMB substrate (KLM)

T1 sequence (Q62351 89-763 limits assumed): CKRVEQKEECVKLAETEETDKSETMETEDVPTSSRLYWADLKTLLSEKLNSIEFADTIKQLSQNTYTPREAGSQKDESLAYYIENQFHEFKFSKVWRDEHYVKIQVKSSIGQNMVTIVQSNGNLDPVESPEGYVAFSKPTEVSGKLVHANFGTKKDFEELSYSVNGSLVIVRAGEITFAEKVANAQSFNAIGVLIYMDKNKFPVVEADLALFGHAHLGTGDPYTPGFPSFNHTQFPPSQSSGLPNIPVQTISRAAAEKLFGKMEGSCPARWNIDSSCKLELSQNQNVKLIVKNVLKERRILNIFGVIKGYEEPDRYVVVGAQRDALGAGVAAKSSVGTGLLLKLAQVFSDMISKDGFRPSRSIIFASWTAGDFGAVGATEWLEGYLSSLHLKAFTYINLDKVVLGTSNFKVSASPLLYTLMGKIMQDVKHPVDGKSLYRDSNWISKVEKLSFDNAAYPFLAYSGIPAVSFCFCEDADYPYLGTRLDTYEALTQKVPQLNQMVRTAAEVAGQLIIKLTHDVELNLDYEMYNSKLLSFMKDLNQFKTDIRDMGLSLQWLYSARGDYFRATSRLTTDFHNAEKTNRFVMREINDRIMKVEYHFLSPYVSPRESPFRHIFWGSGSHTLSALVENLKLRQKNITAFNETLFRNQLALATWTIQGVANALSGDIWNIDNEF

B1: Clone 42 (VNAR)
VNAR: ARVDQTPQTITKETGESLTINCVLRDSNCELSSTYWYRKKSGSTNEARISKGGRYVETVNSGSKSFSLRINDLTVEDSGTYRCKVRKALVQSQSCCQPLHRDVYGDGTAVTVNA
notes: VNAR on phage
B1: no binding.

B2: Clone 44 (VNAR)
VNAR: ARVDQTPRSVTKETGESLTINCVLRDASYELGSTCWYRKKSGSTNEESISKGGRYVETVNSGSKSFSLRINDLTVEDGGTYRCGAGSVQRSTSQCDRLWSRCWRTRFKIAACGDGTAVTVNA
notes: VNAR on phage
B2: no binding.

B3: Clone 46 (VNAR)
VNAR: ARVDQTPRVTKETGESLTINCVLRDASYELGSTCWYRKKSGSTNEESISKGGRYVETVNSGSKSFSLRINDLTVEDGGTYRCGASGSQGQVYRCDRLTLCCLQMQWQVAACGDGTAVTVNA
notes: VNAR on phage
B3: no binding.

B4: Clone 49 (VNAR)
VNAR: ARVDQTPQTITKETGESLTINCVLRDSNCALPSTYWYRKKSGSTNEESISKGGRYVETVNSGSKSFSLKINDLTVEDSGTYRCNVQGRAAYSGLVCDVYGGGTAVTVNA
notes: VNAR on phage
B4: no binding.

B5: Clone 57 (VNAR)
VNAR: ARVDQTPQTITKETGESLTINCVLRDSNCALPSTYWYRKKSGSTNEESISKGGRYVETVNSGSKSFSLRINDLTVEDSGTYRCNVRGFKQCYDLRLDVYGGGTAVTVNA
notes: VNAR on phage
B5: no binding.

B6: Clone 48 (VNAR)
VNAR: ARVDQTPRSVTKETGESLTINCVLRDASYELGSTCWYRKKSGSTNEESISKGGRYVETVNSGSKSFSLRINDLTVEDGGTYRCGASFMLSHPGGCDSCVIMCQTRRQGVAACGDGTAVTVNA
notes: VNAR on phage
B6: no binding.

B7: Clone 47 (VNAR)
VNAR: PRVDQTPQTITKETGESLTINCVLRDSNCALPSTYWYRKKSGSTNEENISKGGRYVETVNSGSKSFSLKINDLTVEDSGTYRCNVIINPLSCYYLQLQDVYGGGTAVTVNA
notes: VNAR on phage
B7: no binding.

B8: Clone 59 (VNAR)
VNAR: ARVDQTPQTITKETGESLTINCVLRDSNCALPSTYWYRKKSGSTNEESISKGGRYVETVNSGSKSFSLRINDLTVEDSGTYRCNVSLQFCCLSFDVYGGGTAVTVNA
notes: VNAR on phage
B8: no binding.

B9: Clone 50 (VNAR)
VNAR: ARVDQTPQTITKETGESLTINCVLRDSNCALPSTYWYRKKSDSTNEESISKGGRYVETVNSGSKSFSLRINDLTVKDSGTYRCNVLIQCCSPTCDVYGGGTAVTVNA
notes: VNAR on phage
B9: no binding.

B10: Clone 38 (VNAR)
VNAR: ARVDQTPQTITKETGESLTINCVLRDSNCALPSTYWYRKKSGSTNEESISKGGRYVETVNSGSKSFSLKINDLTVEDSGTYRCNVRIIQCCVSQDVYGGGTVVTVNA
notes: VNAR on phage
B10: no binding.

B11: Clone 33 (VNAR)
VNAR: PRVDQTPQTITKETGESLTINCVLRDSNCALSNLYWYRKKSGSTNEESISKGGRYVETVNSGSKSFSLRINDLTVEDSGTYRCNVLVGMLSGCGFQRGDVYGGGTAVTVNA
notes: VNAR on phage
B11: no binding.

B12: Clone 45 (VNAR)
VNAR: AVDQTPQTITKETGESLTINCVLRDSNCALSNLYWYRKKSDSTNEESISKGGRYVETVNSGSKSFSLRINDLTVEDSGTYRCNVCWWFSSRCTTCDVYGDGTAVTVNA
notes: VNAR on phage
B12: no binding.

B13: Clone 41 (VNAR)
VNAR: ARVDQTPQTITKETGESLTINCVLRDSNCALSNLYWYRKKSGSTNEESISLGGRYVETVNSGSKSFSLRINDLTVEDSGTYRCKVTCEVALQPYYGQEPTQDVYGGGTVVTVNA
notes: VNAR on phage
B13: no binding.
